Measurements from paper PMC7275066.

Target: HPV52L1-C428A (human papillomavirus type 52 (HPV52))
Experiment: SEC; HPSEC on TSK Gel G 5000 pwxl, 10 mM PB pH 6.5, 0.5 M NaCl; serial molar ratios of C175A and C428A mutants; chVLP fraction analysed by SDS-PAGE and western blotting; pentamers to VLP

Substance: HPV16L1-C175A (domain or fragment)
- stoichiometry N (C175A:C428A molar ratio): 1
